This is an account of results in US20220363770A1 (Amgen, published 2022).

Residue numbers refer to the chain shown, from its start.

First the molecules themselves.
T1: human PAC1 receptor (human, UniProt P41586 24-468)
T1 sequence: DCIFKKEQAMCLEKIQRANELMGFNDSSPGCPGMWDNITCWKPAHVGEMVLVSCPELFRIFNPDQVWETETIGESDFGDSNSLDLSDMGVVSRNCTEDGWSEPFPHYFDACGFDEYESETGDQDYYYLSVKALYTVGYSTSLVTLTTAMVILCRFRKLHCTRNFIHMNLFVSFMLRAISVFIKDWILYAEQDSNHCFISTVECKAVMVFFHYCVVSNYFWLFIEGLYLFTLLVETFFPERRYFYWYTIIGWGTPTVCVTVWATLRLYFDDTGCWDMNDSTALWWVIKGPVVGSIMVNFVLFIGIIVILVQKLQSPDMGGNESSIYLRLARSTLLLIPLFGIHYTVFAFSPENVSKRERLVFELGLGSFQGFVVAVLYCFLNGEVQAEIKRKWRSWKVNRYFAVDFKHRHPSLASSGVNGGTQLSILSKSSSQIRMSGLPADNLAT

B1: iPS:454741 (bispecific antibody, human IgG1, kappa, lambda, N297G)
light 1: QSVLTQPPSVSAAPGQKVTISCSGSYSNIGRYSVSWYQQLPGTAPKLLIYDNNKRPSGIPDRFSGSKSGTSATLGITGLQTGDEADYYCGTWDSRLSAVVFGGGTKLTVLGQPKAAPSVTLFPPSSEELQANKATLVCLISDFYPGAVTVAWKADSSPVKAGVETTTPSKQSNNKYAAKSYLSLTPEQWKSHRSYSCQVTHEGSTVEKTVAPTECS
heavy 1: QVQLVESGGGVVQPGRSLRLSCAASGFTFSSFGMHWVRQAPGKGLEWVAVISFDGSIKYSVDSVKGRFTISRDNSKNTLFLQMNSLRAEDTAVYYCARDRLNYYESSGYYHYKYYGMAVWGQGTTVTVSSASTKGPSVFPLAPSSKSTSGGTAALGCLVKDYFPEPVTVSWNSGALTSGVHTFPAVLQSSGLYSLESVVTVPSSSLGTQTYICNVNHKPSNTKVDKKVEPKSCDKTHTCPPCPAPELLGGPSVFLFPPKPKDTLMISRTPEVTCVVVDVSHEDPEVKFNWYVDGVEVHNAKTKPCEEQYGSTYRCVSVLTVLHQDWLNGKEYKCKVSNKALPAPIEKTISKAKGQPREPQVYTLPPSRKKMTKNQVSLTCLVKGFYPSDIAVEWESNGQPENNYKTTPPVLKSDGSFFLYSKLTVDKSRWQQGNVFSCSVMHEALHNHYTQKSLSLSPGK
light 2: EIVLTQSPATLSLSPGERATLSCRASKSVGQSLHWYQQKPGQAPRLLIKYASQSLSGIPARFSGSGSGTDFTLTISSLEPEDFAVYYCHQSSRLPFTFGPGTKVDIKRTVAAPSVFIFPPSDEQLKSGTASVVCLLNNFYPREAKVQWKVDNALQSGNSQESVTEQDSKDSTYSLESTLTLSKADYEKHKVYACEVTHQGLSSPVTKSFNRGEC
heavy 2: not shown
B2: iPS:454743 (bispecific antibody, human IgG1, kappa, lambda, N297G)
light 1: B1 light 1
heavy 1: B1 heavy 1
light 2: B1 light 2
heavy 2: not shown
B3: iPS:454765 (bispecific antibody, human IgG1, kappa, lambda, N297G)
light 1: B1 light 1
heavy 1: B1 heavy 1
light 2: B1 light 2 with K27Q, Q31R
heavy 2: not shown
B4: iPS:454761 (bispecific antibody, human IgG1, kappa, lambda, N297G)
light 1: B1 light 1
heavy 1: B1 heavy 1
light 2: B1 light 2 with Q31R
heavy 2: not shown
B5: iPS:454747 (bispecific antibody, human IgG1, kappa, lambda, N297G)
light 1: B1 light 1
heavy 1: B1 heavy 1
light 2: EIVLTQSPATLSLSPGERATLSCRASRAVSNLHWYQQKPGQAPRLLIKYASQSLSGIPARFSGSGSGTDFTLTISSLEPEDFAVYYCHQSSYLPFTFGPGTKVDIKRTVAAPSVFIFPPSDEQLKSGTASVVCLLNNFYPREAKVQWKVDNALQSGNSQESVTEQDSKDSTYSLESTLTLSKADYEKHKVYACEVTHQGLSSPVTKSFNRGEC
heavy 2: not shown
B6: iPS:454757 (bispecific antibody, human IgG1, kappa, lambda, N297G)
light 1: B1 light 1
heavy 1: B1 heavy 1
light 2: B1 light 2 with Q31R
heavy 2: not shown
B7: iPS:454763 (bispecific antibody, human IgG1, kappa, lambda, N297G)
light 1: B1 light 1
heavy 1: B1 heavy 1
light 2: B1 light 2 with K27Q, Q31R
heavy 2: not shown
B8: iPS:454751 (bispecific antibody, human IgG1, kappa, lambda, N297G)
light 1: B1 light 1
heavy 1: B1 heavy 1
light 2: B1 light 2 with Q31R
heavy 2: not shown
B9: iPS:454759 (bispecific antibody, human IgG1, kappa, lambda, N297G)
light 1: B1 light 1
heavy 1: B1 heavy 1
light 2: B1 light 2 with Q31R
heavy 2: not shown
B10: iPS:454749 (bispecific antibody, human IgG1, kappa, lambda, N297G)
light 1: B1 light 1
heavy 1: B1 heavy 1
light 2: B1 light 2 with Q31R
heavy 2: not shown
B11: iPS:454745 (bispecific antibody, human IgG1, kappa, lambda, N297G)
light 1: B1 light 1
heavy 1: B1 heavy 1
light 2: B1 light 2 with S28A, Q31F, R93F
heavy 2: not shown
B12: iPS:454767 (bispecific antibody, human IgG1, kappa, lambda, N297G)
light 1: B1 light 1
heavy 1: B1 heavy 1
light 2: B1 light 2 with K27Q, Q31R
heavy 2: not shown
B13: iPS:454755 (bispecific antibody, human IgG1, kappa, lambda, N297G)
light 1: B1 light 1
heavy 1: B1 heavy 1
light 2: B1 light 2 with Q31R
heavy 2: not shown
B14: iPS:454753 (bispecific antibody, human IgG1, kappa, lambda, N297G)
light 1: B1 light 1
heavy 1: B1 heavy 1
light 2: B1 light 2 with Q31R
heavy 2: not shown

Chain of human CGRP receptor (Q16602 23-461 limits assumed, chain 1 of 2): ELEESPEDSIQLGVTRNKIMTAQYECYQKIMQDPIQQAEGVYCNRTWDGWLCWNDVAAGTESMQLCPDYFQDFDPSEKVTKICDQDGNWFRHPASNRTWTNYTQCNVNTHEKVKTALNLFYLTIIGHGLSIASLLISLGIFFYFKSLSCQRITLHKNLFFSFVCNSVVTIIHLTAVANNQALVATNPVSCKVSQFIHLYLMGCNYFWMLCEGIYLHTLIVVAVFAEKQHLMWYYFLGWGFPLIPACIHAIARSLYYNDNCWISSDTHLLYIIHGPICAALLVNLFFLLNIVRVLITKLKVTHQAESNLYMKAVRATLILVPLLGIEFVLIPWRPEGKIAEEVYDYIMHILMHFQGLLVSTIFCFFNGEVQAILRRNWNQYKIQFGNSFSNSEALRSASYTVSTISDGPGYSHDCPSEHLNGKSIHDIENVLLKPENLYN
Chain of human CGRP receptor (O60894 27-148 limits assumed, chain 2 of 2): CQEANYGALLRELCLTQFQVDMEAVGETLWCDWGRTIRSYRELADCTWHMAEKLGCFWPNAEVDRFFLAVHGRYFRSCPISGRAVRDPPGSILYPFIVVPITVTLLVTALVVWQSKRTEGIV

The first assay has as its target human CGRP receptor (human, UniProt Q16602 23-461; O60894 27-148). Description: cell-based or functional assay.
The term IC50 denotes the concentration that gives 50% inhibition. B1: the “Fold-improvement over 4E4 Ab” value stood at 0.8 fold and it took 0.64 nM to reach half-maximal inhibition (IC50).
Turning to B2, the “Fold-improvement over 4E4 Ab” value is 1.1 fold and 0.52 nM corresponded to half-maximal inhibition (IC50).
For B3 the same measures were 1.6 fold and 0.34 nM.
On the same counts, the results for B4 are 1.4 fold and 0.42 nM.
In the case of B5, the “Fold-improvement over 4E4 Ab” value was determined as 1.2 fold and the “IC50” value worked out at 0.49 nM.
For B6 the same measures were 1.4 fold and 0.43 nM.
On the same counts, the results for B7 are 1.5 fold and 0.32 nM.
Turning to B8, the “Fold-improvement over 4E4 Ab” value came to 1.2 fold and it took 0.43 nM to reach half-maximal inhibition (IC50).
As to B9, the “Fold-improvement over 4E4 Ab” value was determined as 1.5 fold and the “IC50” value is 0.39 nM.
On the same counts, the results for B10 are 1.4 fold and 0.41 nM.
With B11, the “Fold-improvement over 4E4 Ab” value stood at 1.3 fold and the “IC50” value was 0.46 nM.
For the molecule B12, the “Fold-improvement over 4E4 Ab” value is 1.2 fold and the midpoint of inhibition, the IC50, lay at 0.41 nM.
For B13 the same measures were 1.8 fold and 0.27 nM.
For B14 the same measures were 1.3 fold and 0.37 nM.

The target in a further assay is T1, human PAC1 receptor. Description: cell-based or functional assay.
Turning to B1, the “Fold-improvement over 29G4v22 Ab” value came to 4.2 fold and 1.58 nM corresponded to half-maximal inhibition (IC50).
For B2 the same measures were 3.8 fold and 1.66 nM.
For B3 the same measures were 7.8 fold and 0.71 nM.
With B4, the “Fold-improvement over 29G4v22 Ab” value came to 6.4 fold and the “IC50” value was determined as 0.97 nM.
In the case of B5, the “Fold-improvement over 29G4v22 Ab” value came to 2 fold and it took 3.09 nM to reach half-maximal inhibition (IC50).
Regarding B6, the “Fold-improvement over 29G4v22 Ab” value is 9.2 fold and the “IC50” value stood at 0.68 nM.
On to B7, for which the “Fold-improvement over 29G4v22 Ab” value came to 8.5 fold and it took 0.75 nM to reach half-maximal inhibition (IC50).
On the same counts, the results for B8 are 12.2 fold and 0.52 nM.
For B9 the same measures were 8.5 fold and 0.74 nM.
In the case of B10, the “Fold-improvement over 29G4v22 Ab” value turned out to be 7.5 fold and the half-maximal inhibitory concentration (IC50) came to 0.83 nM.
Take B11: the “Fold-improvement over 29G4v22 Ab” value is 5.2 fold and the 50% inhibitory concentration (IC50) is 1.2 nM.
On the same counts, the results for B12 are 9 fold and 0.71 nM.
On the same counts, the results for B13 are 9.2 fold and 0.69 nM.
For the molecule B14, the “Fold-improvement over 29G4v22 Ab” value stood at 10.4 fold and the “IC50” value was found to be 0.61 nM.
